Target: T1, HA-tagged PHLPP1 N-terminal extension (PHLPP1 NTE), residues 1-512 (UniProt O60346 1-512)
T1 construct: PH domain Leucine-rich repeat Protein Phosphatase 1 (PHLPP1), N-terminal extension, residues 1-512 of the 1717-residue protein; also called HA-NTE; pCDNA3 HA PHLPP1 NTE-WT; source: HEK-293T, transfected, in lysate; not shown: HA, N-terminal, kept
T1 sequence (looked up): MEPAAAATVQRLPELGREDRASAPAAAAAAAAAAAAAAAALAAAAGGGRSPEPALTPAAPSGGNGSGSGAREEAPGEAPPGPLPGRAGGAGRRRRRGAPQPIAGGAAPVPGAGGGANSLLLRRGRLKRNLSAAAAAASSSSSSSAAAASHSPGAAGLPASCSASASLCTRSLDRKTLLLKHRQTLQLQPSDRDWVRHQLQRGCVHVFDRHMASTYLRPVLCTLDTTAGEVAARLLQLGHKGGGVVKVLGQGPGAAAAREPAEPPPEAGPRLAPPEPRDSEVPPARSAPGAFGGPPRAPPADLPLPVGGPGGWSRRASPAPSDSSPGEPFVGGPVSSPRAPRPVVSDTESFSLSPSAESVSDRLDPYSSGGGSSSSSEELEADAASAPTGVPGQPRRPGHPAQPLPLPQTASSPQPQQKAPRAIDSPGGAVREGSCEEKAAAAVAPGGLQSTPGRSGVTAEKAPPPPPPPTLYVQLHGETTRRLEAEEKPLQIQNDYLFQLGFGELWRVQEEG
Test: co-IP; HEK-293T cells transfected with HA-tagged PHLPP1 constructs and GFP-STAT1; detergent-solubilized lysates incubated with anti-HA antibody at 4°C overnight, protein A/G agarose 1 hr at 4°C, washed three times in lysis buffer with 0.3 M NaCl and 0.1% Triton X 100; blot probed with GFP antibody; GFP-STAT1 IP divided by HA IP, normalized to HA-NTE IP, three independent experiments
Details: partners not purified

fold binding against PHLPP1 lacking the NTE: ~26 fold
fold binding against full-length PHLPP1: ~5 fold
B1: GFP-STAT1 (natural protein, UniProt P42224 1-750, looked up)
chain: MSQWYELQQLDSKFLEQVHQLYDDSFPMEIRQYLAQWLEKQDWEHAANDVSFATIRFHDLLSQLDDQYSRFSLENNFLLQHNIRKSKRNLQDNFQEDPIQMSMIIYSCLKEERKILENAQRFNQAQSGNIQSTVMLDKQKELDSKVRNVKDKVMCIEHEIKSLEDLQDEYDFKCKTLQNREHETNGVAKSDQKQEQLLLKKMYLMLDNKRKEVVHKIIELLNVTELTQNALINDELVEWKRRQQSACIGGPPNACLDQLQNWFTIVAESLQQVRQQLKKLEELEQKYTYEHDPITKNKQVLWDRTFSLFQQLIQSSFVVERQPCMPTHPQRPLVLKTGVQFTVKLRLLVKLQELNYNLKVKVLFDKDVNERNTVKGFRKFNILGTHTKVMNMEESTNGSLAAEFRHLQLKEQKNAGTRTNEGPLIVTEELHSLSFETQLCQPGLVIDLETTSLPVVVISNVSQLPSGWASILWYNMLVAEPRNLSFFLTPPCARWAQLSEVLSWQFSSVTKRGLNVDQLNMLGEKLLGPNASPDGLIPWTRFCKENINDKNFPFWLWIESILELIKKHLLPLWNDGCIMGFISKERERALLKDQQPGTFLLRFSESSREGAITFTWVERSQNGGEPDFHAVEPYTKKELSAVTFPDIIRNYKVMAAENIPENPLKYLYPNIDKDHAFGKYYSRPKEAPEPMELDGPKGTGYIKTELISVSEVHPSRLQTTDNLLPMSPEEFDEVSRIVGSVEFDSMMNTV
notes: STAT1, detected in the co-IP by its GFP tag; the methods give no source or limits for it; source: HEK-293T, transfected, in lysate
